Earlier results, collected in publication PMC9027846.

Molecular target: Plasmin (Homo sapiens) (UniProt P00747)
Assay: BLI

Chain of UniProt P00747 (P00747 581-810): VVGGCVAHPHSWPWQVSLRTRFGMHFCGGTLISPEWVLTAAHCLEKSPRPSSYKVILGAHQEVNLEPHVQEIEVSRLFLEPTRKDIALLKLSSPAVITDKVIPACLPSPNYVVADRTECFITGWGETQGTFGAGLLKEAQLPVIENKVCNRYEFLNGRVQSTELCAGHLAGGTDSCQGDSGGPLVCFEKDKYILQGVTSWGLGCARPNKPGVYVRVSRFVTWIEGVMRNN

For AaTI (from UniProt Q177W0), the Kd is listed as 62.8 nM.
